We go through three substances from paper PMC5727262, “Molecular mechanism of K65 acetylation-induced attenuation of Ubc9 and the NDSM interaction” (Scientific Reports, 2017).

For one experiment, the target named is Ubc9 (wild type) (UniProt P63279). As to the kind of experiment: ITC; 2 μl additions of peptide to 200 μl of WT Ubc9 or Ac-Ubc9K65; 25 °C; pH 8.0, 20 mM potassium phosphate, 100 mM NaCl; iTC200; fitted assuming 1:1 binding stoichiometry. For orientation: Isothermal titration calorimetry measures the heat released or taken up as one component is titrated into another.

Experiment [1] addresses Ac-Ubc9K65 (Ubc9 acetylated at K65) (UniProt P63279). Described as above.

In general, Kd refers to the equilibrium constant for the complex coming apart. Low values mean higher affinity, high ones lower affinity.

Ubc9 (wild type), sequence (P63279 whole entry): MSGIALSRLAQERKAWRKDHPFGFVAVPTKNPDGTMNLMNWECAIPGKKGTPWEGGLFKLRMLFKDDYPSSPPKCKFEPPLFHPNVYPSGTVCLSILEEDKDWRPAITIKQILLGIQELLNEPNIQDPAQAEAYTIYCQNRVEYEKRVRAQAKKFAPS
Ac-Ubc9K65 (Ubc9 acetylated at K65), sequence (P63279 whole entry): as above

“RanGAP1 peptide (consensus sumoylation motif) (from UniProt P46060 517-536)”: the dissociation constant Kd (with Ubc9 (wild type); in experiment [1]) was 13 µM throughout.

As to “Elk1 NDSM peptide (from UniProt P19419 242-261)”, the results for the Kd (with Ubc9 (wild type); in experiment [1]) were 70 µM and 103 µM, respectively.

For the substance Calpain2 NDSM peptide, the dissociation constant (Kd) in the experiment with Ubc9 (wild type) was 56 µM; in experiment [1] it was 80 µM.
